Experimental data from patent publication US20200157212A1 (Pfizer, published 2020).

T1: Terbium (Tb) labeled-SNAP tagged ROBO2 expressed on HEK293 cells (Homo sapiens (Human), UniProt Q9HCK4 22-1378, terbium label on the SNAP tag)
T1 construct: also called Tb-labeled ROBO2 cells; ROBO2 expressing cells; not shown: SNAP tag
T1 sequence: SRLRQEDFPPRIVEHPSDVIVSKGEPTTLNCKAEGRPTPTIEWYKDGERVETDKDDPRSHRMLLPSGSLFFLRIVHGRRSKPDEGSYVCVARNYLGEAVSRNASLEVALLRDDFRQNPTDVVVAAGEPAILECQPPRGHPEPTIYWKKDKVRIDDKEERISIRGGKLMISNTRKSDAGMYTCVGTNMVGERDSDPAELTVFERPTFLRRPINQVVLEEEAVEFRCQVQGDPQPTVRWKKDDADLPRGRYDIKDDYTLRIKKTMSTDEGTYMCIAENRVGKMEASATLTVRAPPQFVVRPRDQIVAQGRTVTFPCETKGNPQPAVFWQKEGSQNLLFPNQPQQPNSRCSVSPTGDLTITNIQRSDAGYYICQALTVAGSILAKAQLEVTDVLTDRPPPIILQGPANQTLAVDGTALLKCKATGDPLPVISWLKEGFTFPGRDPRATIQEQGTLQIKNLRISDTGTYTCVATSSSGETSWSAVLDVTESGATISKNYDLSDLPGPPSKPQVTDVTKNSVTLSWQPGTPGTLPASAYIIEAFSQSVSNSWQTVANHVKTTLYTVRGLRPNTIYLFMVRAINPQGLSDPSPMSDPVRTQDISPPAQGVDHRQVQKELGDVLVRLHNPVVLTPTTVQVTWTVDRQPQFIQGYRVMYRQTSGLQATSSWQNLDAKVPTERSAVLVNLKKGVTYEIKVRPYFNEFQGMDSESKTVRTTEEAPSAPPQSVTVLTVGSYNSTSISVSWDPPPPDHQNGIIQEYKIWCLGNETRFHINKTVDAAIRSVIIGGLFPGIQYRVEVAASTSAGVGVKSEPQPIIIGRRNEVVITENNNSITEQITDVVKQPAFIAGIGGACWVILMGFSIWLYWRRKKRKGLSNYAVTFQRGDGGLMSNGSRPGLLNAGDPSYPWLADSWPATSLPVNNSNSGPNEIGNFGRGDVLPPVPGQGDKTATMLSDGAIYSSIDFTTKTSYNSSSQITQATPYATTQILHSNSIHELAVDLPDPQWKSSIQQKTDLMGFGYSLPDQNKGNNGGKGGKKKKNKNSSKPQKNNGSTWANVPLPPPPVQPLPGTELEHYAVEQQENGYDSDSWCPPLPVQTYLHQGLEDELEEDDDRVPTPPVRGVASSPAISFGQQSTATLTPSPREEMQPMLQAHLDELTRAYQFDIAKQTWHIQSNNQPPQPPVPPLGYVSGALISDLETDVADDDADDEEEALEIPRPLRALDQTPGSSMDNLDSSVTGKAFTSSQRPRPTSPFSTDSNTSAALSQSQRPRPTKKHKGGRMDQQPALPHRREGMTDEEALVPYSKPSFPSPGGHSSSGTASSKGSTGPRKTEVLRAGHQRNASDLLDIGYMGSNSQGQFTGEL


Key:
[1] = molecular target: T2, Human ROBO1 RSK mutant overexpressed on HEK293 cells (human, UniProt Q9Y6N7 26-1651); assay: flow cytometry, HEK293 ROBO1-RSK cells
T2 construct: K137R and R139K already in the entry; also called ROBO1-RSK cells
Description: Binding of the antibodies was detected using a secondary fluorochrome conjugated anti-human IgG F(ab′)₂ antibody and samples were analyzed on a Fortessa cytometer (BD Biosciences). The fold ROBO2 selectivity was calculated as the geometric mean fluorescence intensity (Geo MFI) with ROBO2 cells/Geo MFI with ROBO1 cells. A fold change higher than 3 was considered to be ROBO2 specific (Table 2, Fold Selectivity). Some affinity matured clones had increased ROBO1 reactivity, for example Abcs 55, CTI-R2-10 and CTIR2-13.
Based upon several criteria, Abcs25 and Abcs35 were selected for further characterization. Using flow cytometry, improvement in the binding EC₅₀ to human ROBO2 relative to the parental 93H2 was evaluated. Starting at 6.7 nM, 11-point, 3-fold dilution series were made for each antibody and used to stain HEK293 overexpressing human ROBO2 as described above for the ROBO2 fold selectivity (Example 2). […] In addition to measuring improved binding to human ROBO2, it was important to ensure that high affinity binding to both cynomolgus monkey ROBO2 and rat ROBO2 was maintained. Using HEK293 cells overexpressing either cynomolgus monkey ROBO2 or rat ROBO2, the relative dose-dependent binding of 93H2, Abcs25 and Abcs35 was evaluated as described above. High affinity binding to both cynomolgus monkey and rat ROBO2 was maintained in Abcs25 and Abcs35 (Table 4). […] Briefly, Abcs35 was immobilized to 300 resonance units (RU) on a CM5 chip. Association of ROBO2 Ig1-Ig2-His (ROBO2) was measured over 5 minutes and dissociation was followed for a period of 10 minutes.
RSK specificity for Abcs35, along with 93H2 and Abcs25, also was confirmed in a cell-based binding assay using flow cytometry. HEK293 cells overexpressing ROBO2 containing the KSR sequence from ROBO1 (ROBO2-KSR) or ROBO1 containing the RSK sequence from ROBO2 (ROBO1-RSK) were generated. As described above in Example 3, dose-dependent binding was evaluated.

[2] = molecular target: T1, Terbium (Tb) labeled-SNAP tagged ROBO2 …; assay: HTRF, 5 nM d2-SLIT2-N on Tb-SNAP-ROBO2 HEK293 cells, 1 nM antibody
In short: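 Tb-SNAP-ROBO2 HEK293 cells incubated 1 hour with 5 nM d2-SLIT2-N, with 1 nM anti-ROBO2 antibody or none (maximal signal); cells alone gave minimum. HTRF read at 665/620 nm; IC50 series used 11-point, 5-fold dilutions from 1500 nM.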

T2 sequence (Q9Y6N7 other isoform, or with tags, fused parts or gaps mutant limits assumed): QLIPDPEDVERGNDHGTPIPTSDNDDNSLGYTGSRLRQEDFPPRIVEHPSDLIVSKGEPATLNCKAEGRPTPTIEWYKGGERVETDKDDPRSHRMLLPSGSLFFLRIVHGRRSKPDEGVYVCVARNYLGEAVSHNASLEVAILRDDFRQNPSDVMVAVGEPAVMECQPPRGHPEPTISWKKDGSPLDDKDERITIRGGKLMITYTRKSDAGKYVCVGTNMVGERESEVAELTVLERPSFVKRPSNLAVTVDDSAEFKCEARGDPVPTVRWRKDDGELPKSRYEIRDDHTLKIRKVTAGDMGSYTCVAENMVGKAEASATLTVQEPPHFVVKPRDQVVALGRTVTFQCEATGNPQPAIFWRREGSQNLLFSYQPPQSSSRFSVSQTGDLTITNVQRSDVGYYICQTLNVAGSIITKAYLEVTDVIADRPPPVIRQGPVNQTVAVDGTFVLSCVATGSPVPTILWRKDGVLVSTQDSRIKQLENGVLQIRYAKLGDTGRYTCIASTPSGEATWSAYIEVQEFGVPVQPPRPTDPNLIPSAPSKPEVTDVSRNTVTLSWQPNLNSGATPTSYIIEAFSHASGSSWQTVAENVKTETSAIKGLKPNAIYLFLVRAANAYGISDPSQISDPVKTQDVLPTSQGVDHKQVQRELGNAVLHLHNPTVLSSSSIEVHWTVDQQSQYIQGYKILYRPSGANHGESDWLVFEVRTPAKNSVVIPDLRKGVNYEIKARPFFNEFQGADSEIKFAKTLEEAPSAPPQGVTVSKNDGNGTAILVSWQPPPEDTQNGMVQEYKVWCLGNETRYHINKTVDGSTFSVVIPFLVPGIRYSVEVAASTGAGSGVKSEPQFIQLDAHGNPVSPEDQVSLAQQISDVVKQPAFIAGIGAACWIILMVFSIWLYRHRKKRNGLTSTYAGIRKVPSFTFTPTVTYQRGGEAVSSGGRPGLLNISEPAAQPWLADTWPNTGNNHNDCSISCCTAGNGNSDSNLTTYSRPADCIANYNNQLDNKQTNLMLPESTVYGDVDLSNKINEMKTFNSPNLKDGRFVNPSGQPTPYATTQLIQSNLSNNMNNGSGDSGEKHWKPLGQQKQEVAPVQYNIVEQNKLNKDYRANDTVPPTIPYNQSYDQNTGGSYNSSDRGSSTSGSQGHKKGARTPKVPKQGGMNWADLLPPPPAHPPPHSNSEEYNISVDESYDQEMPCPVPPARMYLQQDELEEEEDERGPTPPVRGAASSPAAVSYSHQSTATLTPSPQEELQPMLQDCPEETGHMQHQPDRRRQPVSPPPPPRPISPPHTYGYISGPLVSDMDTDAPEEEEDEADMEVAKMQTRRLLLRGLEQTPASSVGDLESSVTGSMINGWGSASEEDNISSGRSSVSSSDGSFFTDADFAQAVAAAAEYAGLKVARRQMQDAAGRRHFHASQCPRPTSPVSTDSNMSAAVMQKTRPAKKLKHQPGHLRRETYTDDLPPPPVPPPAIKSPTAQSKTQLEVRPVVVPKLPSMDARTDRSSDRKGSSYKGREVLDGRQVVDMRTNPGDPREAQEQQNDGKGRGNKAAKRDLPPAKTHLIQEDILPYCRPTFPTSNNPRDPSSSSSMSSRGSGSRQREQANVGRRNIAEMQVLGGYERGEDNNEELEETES

| EC50 [1] [pM] | HTRF Ratio [2] | Binder |
| --- | --- | --- |
| 370 | 13800 | 93H2 (antibody, human IgG1, kappa, V domains shown, also called parental 93H2; 93H2 mAb) VH: EVQLVQSGAEVKKPGASVKVSCKASGYTFTGYYMHWVRQAPGQGLEWMGWINPNSGATNFPQKFQGRVTMTRDTSITTAYMDLSRLRSDDTAVYYCARESGDDAFDIWGQGTMVTVSS VL: not shown |
|  | 3050 | Abcs55 (antibody, human IgG1, kappa, V domains shown, chain-shuffled IgG) VH: EVQLVQSGAEVKKPGASVKVSCKASGYTFTGYYMHWVRQAPGQGLEWMGWINPKDGDTEFPQKFQGRVTMTRDTSITTAYMDLSRLRSDDTAVYYCARESGDDAFDIWGQGTMVTVSS VL: DIVMTQSPSSLSASVGDRVTITCRASQSISSYLNWYQQKPGKAPKLLIYAASSLQYGVPSRFSGSGSGTDFTLTISSLQPEDFATYYCQQSYSTSFGGGTKVEIKR |
|  | 3730 | CTIR2-16 (antibody, human IgG1, kappa, V domains shown, CDR-shuffled IgG) VH: EVQLVQSGAEVKKPGASVKVSCKASGYTFRGYAMHWVRQAPGQGLEWMGWIDPRTGLTKFPQKFQGRVTMTRDTSITTAYMDLSRLRSDDTAVYYCARESGDDAFDIWGQGTMVTVSS VL: DIVMTQSPSSLSASVGDRVTITCRASQKISSYLNWYQQKPGKAPKLLIYAASSLQYGVPSRFSGSGSGTDFTLTISSLQPEDFATYYCQQSVGLFFGGGTKVEIKR |
|  | 3710 | CTIR2-14 (antibody, human IgG1, kappa, V domains shown, CDR-shuffled IgG) VH: EVQLVQSGAEVKKPGASVKVSCKASGYTFRGYAMHWVRQAPGQGLEWMGWIDPRTGLTKFPQKFQGRVTMTRDTSITTAYMDLSRLRSDDTAVYYCARESGDDAFDIWGQGTMVTVSS VL: DIVMTQSPSSLSASVGDRVTITCRASQKISSYLNWYQQKPGKAPKLLIYAASSLQYGVPSRFSGSGSGTDFTLTISSLQPEDFATYYCQQSLELGFGGGTKVEIKR |
| 61 | 3880 | Abcs25 (antibody, human IgG1, kappa, V domains shown, chain-shuffled IgG) VH: EVQLVQSGAEVKKPGASVKVSCKASGYTFTGYYMHWVRQAPGQGLEWMGWINPKDGDTEFPQKFQGRVTMTRDTSITTAYMDLSRLRSDDTAVYYCARESGDDAFDIWGQGTMVTVSS VL: DIVMTQSPSSLSASVGDRVTITCRASQSISSYLNWYQQKPGKAPKLLIYAASSLQSGVPSRFSGSGSGTDFTLTISSLQPEDFATYYCQQSVGLSFGGGTKVEIKR |
|  | 3970 | Abcs20 (antibody, human IgG1, kappa, V domains shown, chain-shuffled IgG) VH: EVQLVQSGAEVKKPGASVKVSCKASGYTFTGYYMHWVRQAPGQGLEWMGWINPKNGDTEFPQKFQGRVTMTRDTSITTAYMDLSRLRSDDTAVYYCARESGDDAFDIWGQGTMVTVSS VL: DIVMTQSPSSLSASVGDRVTITCRASQSISSYLNWYQQKPGKAPKLLIYAASSLQSGVPSRFSGSGSGTDFTLTISSLQPEDFATYYCQQSVGLSFGGGTKVEIKR |
|  | 3750 | CTIR2-15 (antibody, human IgG1, kappa, V domains shown, CDR-shuffled IgG) VH: EVQLVQSGAEVKKPGASVKVSCKASGYTFRGYAMHWVRQAPGQGLEWMGWIDPRTGLTKFPQKFQGRVTMTRDTSITTAYMDLSRLRSDDTAVYYCARESGDDAFDIWGQGTMVTVSS VL: DIVMTQSPSSLSASVGDRVTITCRASQKISSYLNWYQQKPGKAPKLLIYAASSLQYGVPSRFSGSGSGTDFTLTISSLQPEDFATYYCQQSVGLSFGGGTKVEIKR |
|  | 3390 | Abcs40 (antibody, human IgG1, kappa, V domains shown, chain-shuffled IgG) VH: EVQLVQSGAEVKKPGASVKVSCKASGYTFTGYYMHWVRQAPGQGLEWMGWINPKDGDTEFPQKFQGRVTMTRDTSITTAYMDLSRLRSDDTAVYYCARESGDDAFDIWGQGTMVTVSS VL: DIVMTQSPSSLSASVGDRVTITCRASQSISSYLNWYQQKPGKAPKLLIYAASSLQSGVPSRFSGSGSGTDFTLTISSLQPEDFATYYCQQSVGLFFGGGTKVEIKR |

| Binder | EC50 [1] [pM] | HTRF Ratio [2] |
| --- | --- | --- |
| Abcs35 (antibody, human IgG1, kappa, fully human IgG1; VH of Ab96 with VL of Ab123) heavy: EVQLVQSGAEVKKPGASVKVSCKASGYTFTGYYMHWVRQAPGQGLEWMGWINPKNGDTEFPQKFQGRVTMTRDTSITTAYMDLSRLRSDDTAVYYCARESGDDAFDIWGQGTMVTVSSASTKGPSVFPLAPSSKSTSGGTAALGCLVKDYFPEPVTVSWNSGALTSGVHTFPAVLQSSGLYSLSSVVTVPSSSLGTQTYICNVNHKPSNTKVDKKVEPKSCDKTHTCPPCPAPEAAGAPSVFLFPPKPKDTLMISRTPEVTCVVVDVSHEDPEVKFNWYVDGVEVHNAKTKPREEQYNSTYRVVSVLTVLHQDWLNGKEYKCKVSNKALPAPIEKTISKAKGQPREPQVYTLPPSREEMTKNQVSLTCLVKGFYPSDIAVEWESNGQPENNYKTTPPVLDSDGSFFLYSKLTVDKSRWQQGNVFSCSVMHEALHNHYTQKSLSLSPGK light: DIVMTQSPSSLSASVGDRVTITCRASQSISSYLNWYQQKPGKAPKLLIYAASSLQSGVPSRFSGSGSGTDFTLTISSLQPEDFATYYCQQSVGLFFGGGTKVEIKRTVAAPSVFIFPPSDEQLKSGTASVVCLLNNFYPREAKVQWKVDNALQSGNSQESVTEQDSKDSTYSLSSTLTLSKADYEKHKVYACEVTHQGLSSPVTKSFNRGEC | 74 | 3940 |
